The values that follow come from PMC5117854, “Functional asymmetry and electron flow in the bovine respirasome” (eLife, 2016).

Test [1] concerns the target T1, subunit 1 of complex III (bovine (endogenous in heart …, UniProt P31800 35-480)).
T1 construct: complex III subunit 1, bovine heart; stood in the assay as a subunit of the complex III dimer within the respirasome; also called subunit 1 of the bc1 complex; source: endogenous, bovine heart mitochondria; part of the supercomplex I1III2IV1 purified in amphipol A8-35
T1 sequence (looked up): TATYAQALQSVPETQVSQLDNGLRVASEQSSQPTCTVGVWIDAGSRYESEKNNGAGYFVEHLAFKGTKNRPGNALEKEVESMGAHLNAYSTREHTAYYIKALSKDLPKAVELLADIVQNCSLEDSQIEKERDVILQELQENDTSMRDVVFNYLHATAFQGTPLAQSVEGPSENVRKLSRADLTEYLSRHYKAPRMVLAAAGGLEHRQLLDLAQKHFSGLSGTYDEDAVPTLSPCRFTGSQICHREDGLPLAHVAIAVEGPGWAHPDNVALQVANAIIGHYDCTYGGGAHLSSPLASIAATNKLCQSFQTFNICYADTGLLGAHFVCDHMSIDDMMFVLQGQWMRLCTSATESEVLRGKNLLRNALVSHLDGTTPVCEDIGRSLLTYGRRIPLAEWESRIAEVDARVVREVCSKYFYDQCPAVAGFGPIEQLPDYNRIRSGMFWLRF
Nature of the test: cryo-EM structure; class 1 map of supercomplex I1III2IV1 (17,094 particles, 9.1 Å; transmembrane region 8.6 Å); native supercomplex co-purified from bovine heart mitochondria (PCC-a-M, then amphipol A8-35, density gradient); atomic models of complexes I, III and IV docked. As to conditions: both partners purified.

The target in test [2] is T2, subunit ND5 of complex I (bovine (endogenous in heart …, UniProt P03920 1-606)).
T2 construct: complex I core subunit ND5, bovine heart; stood in the assay as a subunit of complex I within the respirasome; source: endogenous, bovine heart mitochondria; part of the supercomplex I1III2IV1 purified in amphipol A8-35
Described as above. As to conditions: both partners purified.

T2 sequence (P03920 whole entry, one chain of several): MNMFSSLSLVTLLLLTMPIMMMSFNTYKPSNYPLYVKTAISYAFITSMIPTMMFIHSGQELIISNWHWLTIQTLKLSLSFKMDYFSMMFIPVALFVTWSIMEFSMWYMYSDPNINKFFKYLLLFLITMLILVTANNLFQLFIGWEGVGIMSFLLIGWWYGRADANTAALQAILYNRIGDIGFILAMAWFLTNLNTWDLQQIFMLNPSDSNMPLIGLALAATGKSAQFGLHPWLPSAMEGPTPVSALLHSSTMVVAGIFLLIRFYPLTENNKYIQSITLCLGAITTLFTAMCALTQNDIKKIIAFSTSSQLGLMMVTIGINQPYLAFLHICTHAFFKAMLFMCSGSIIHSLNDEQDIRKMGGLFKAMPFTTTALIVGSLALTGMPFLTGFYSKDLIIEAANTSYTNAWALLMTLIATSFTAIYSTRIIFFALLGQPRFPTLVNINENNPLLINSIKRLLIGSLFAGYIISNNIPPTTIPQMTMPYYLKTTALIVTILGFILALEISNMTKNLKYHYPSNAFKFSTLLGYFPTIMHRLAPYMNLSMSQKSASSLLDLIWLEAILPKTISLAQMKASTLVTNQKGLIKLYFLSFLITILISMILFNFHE

B1: COX7A1 of cytochrome c oxidase (complex IV) (natural protein, UniProt P07470 22-80, looked up)
chain: FENRVAEKQKLFQEDNGLPVHLKGGATDNILYRVTMTLCLGGTLYSLYCLGWASFPHKK
notes: complex IV subunit COX7A1, bovine heart; stood in the assay as a subunit of complex IV within the respirasome; source: endogenous, bovine heart mitochondria; part of the supercomplex I1III2IV1 purified in amphipol A8-35
As to B1, the binding result in test [1] was “binds”.

B2: complex IV subunit COX7C (natural protein, UniProt P00430 17-63, looked up)
chain: SHYEEGPGKNIPFSVENKWRLLAMMTLFFGSGFAAPFFIVRHQLLKK
notes: complex IV subunit COX7C, bovine heart; stood in the assay as a subunit of complex IV within the respirasome; source: endogenous, bovine heart mitochondria; part of the supercomplex I1III2IV1 purified in amphipol A8-35
B2: in test [2], the binding result is reported as “binds”.
